In PMC10130748 (Life Science Alliance, 2023):
Positions of bridges follow the written chain, without caps; N, C: chain ends. No end group written: not given here.

Target: T1, CD62P (P-selectin) lectin domain (residues 1–117), wild type
T1 construct: CD62P (P-selectin) C-type lectin domain, residues 1-117; cDNA chemically synthesized, BamHI/EcoRI site of pET28a; also called CD62P lectin domain; C-type lectin domain of CD62P; not shown: His tag from pET28a ([residues removed]), N-terminal, kept
T1 chain: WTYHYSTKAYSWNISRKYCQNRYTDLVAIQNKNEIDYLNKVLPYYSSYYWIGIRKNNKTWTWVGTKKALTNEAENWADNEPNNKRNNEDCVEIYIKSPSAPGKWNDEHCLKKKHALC
Experiment: ELISA; wells coated with the CD62P lectin domain (20 μg/ml), blocked with BSA; site 2 peptides fused to GST (100 μg/ml); bound GST detected with HRP-conjugated anti-GST
Settings: both partners purified

Binder | binding result
CRLAGIVQPNDGQSHVGSDNHYSASTTMC (disulfide 1-29 (inferred); also: fused to GST, also called cyclic site 2 peptide from β3; site 2 peptide of β3) [cyclic site 2 peptide of integrin β3 (residues 260–288, C273S) fused to GST] | binds
CKLGGIVLPNDGQSHLENNMYTMSHYYC (disulfide 1-28 (inferred); also: fused to GST, also called cyclic site 2 peptide from β1; site 2 peptide from β1) [cyclic site 2 peptide of integrin β1 (residues 268–295, C281S) fused to GST] | binds
